Measured values reported in the supplement of paper PMC9170038.

These sequences were tested on K4 kissing-loop RNA reporter (assay: apparent KD of K4 kissing-loop reporter; higher = weaker reporter binding). Details: Eterna round: R107; input ligand: none.
Description: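 RNA-MaP round R107: designed RNA switches with theophylline, tryptophan, arginine or FMN aptamers are transcribed on-chip within common flanks. They are titrated with a labelled K4 kissing-loop RNA reporter in RNA-MaP buffer (100 mM Tris pH 7.5, 80 mM KCl, 4 mM MgCl2), without ligand or with the indicated ligand. Median apparent KD per design.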
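Note: bound reporter read as fluorescence of individual clusters on recovered sequencing chips by microscopy, with normalized cluster intensities fitted with a binding model.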

Sequence | apparent KD of K4 kissing-loop reporter
GGAAGACACCUGAGUGAUGUUCGGGUGUGCCGAGGACCGGUACGGCCGCCACUCGGGUGGUACAGUUACUGAUUGGACCGCUAUC [Arbirace] | 275 nM
AUUAAUUUCAGAGGAUAUCGUUAUUUUUUAUAUUUUAUUCAUUUAUGCAGUGAUGUUGCUAUUAUUCGAGAAGGCUGAUUUAUAA [JR_ExcFMNB_Sub004] | 44.9 nM
AAGGCCACGAGAAGGAGCGUGUUGUGGAGUGAUGUUCCACUGUAGACCUAAGGUCUACAGGCACAGGUAGGUCGCUCGUGGUCAA [Omei KL Arginine B SS A v6] | 145 nM
UUUGUAUAGGGAAGGAGCGUGAAUGAUAAUGAAUAUAGUGAUGUUAUAUAUAAGAAAGAAUCACAGGUAGGUCGCCCGGAGGAGG [SSArgB.J] | 668 nM
AAAUUUAUUAUAUUUGAAUAAAUAUGUGAUACCAGACAUUUAUAAGUCCCUUGGCAGCACAAUGCAGUGAUGUUGCUUAUAAUAA [JR_SSTheophyA_Sub018] | 93 nM
GGAUAGGAUAGAGGAUAUGGAUUAGGCAAGAAUAACUUGUCUUGUAAAUCCAUGAGGAGUGAUGUUCCAGAAGGCUGUCCUAUCG [MatMod 6 - Jieux - Exclusion - FMN B] | 116 nM
UAGUAUAAUCUGUCGUUUACAAUAUUUAGUCAGGAUAUCGUAUAUUCGAGAAGGGACACUAUCUAGUGAUGUUAGAUAUUUCUUU [JR_ExcFMNA_Sub013] | 54.9 nM
AGCAGUGAUGUUGCAUUUAUAAUGACCGAUACCAGUAUCGAUAGAUACCCUUGGCAGCGGAUUUCCGCAACGACUAGGAAACUAG [Ex Theophylline A K4 14] | 355 nM
GUCAUCAGAUCGCAAGAUCUGAUAGCCGAUACCAGCGCGAAGGUGCGCCCUUGGCAGCGGCACCGAGUGAUGUUCGGUCAGACGG [#2 Same State - Theophylline A Attempt #4 (HarryS)] | 776 nM
UUUCGUUGAAGUGAUACCAGACUUGAAAGUGAUGUUUUCCAAUAAUUUAAAUUUUUAGCUGUCCCUUGGCAGCACAGUUUAUUUA [JR_Nu_ExcTheophyB_Sub025] | 275 nM
UCGGCGUACGGGCGGGUAGUGAUGUUGCUCCGAGGACCGGUACGGCCGCCACUCGAGGUACCAGUUCAUAGAACCUGGCACAUCA [theeternabot_exclusion_KL_Trp_A_23] | 541 nM
GGCUCCUACGGAGGAUAUAGUAGCCCAGAGUGAUGUUCUAGGGUGUUUUCCGAUUUAGUCAUUGUUCUAGAAGGCCGUAGGAGCC | 189 nM
UAAGAGGACCACUGCGAGAGUCCUCGAAUACGAGGACCGGUACGGCCGCCACUCGAUAAUUUGCAGUGAUGUUGCAAGUAAGAAU [BrourdMod 6 - Jieux - Same State Tryptophan A] | 82.4 nM
GAGGCCAGACGGAGUGAUGUUUCGUAUGAUACCAGCAGCGAAAGCUGCCCUUGGCAGCAUGCCACGGCCUCGGCGGGAAACCGCC | 397 nM
UGUGGAGAAUAUGAUACCAGCAGUGAGAGAGAGGAAGUAUAGUGAUGUUAUAUGAGAGAAUGCCCUUGGCAGCAUAUGUAGUAGG [SSTheophylB.G] | 207 nM
UAGGGCCCUGGAGGAUAUGAGUCUAGUGAUGUUAGGCGGUCCAUGCGCGUGGCGCGUUAUGCCCUUUUAGAAGGCCAGGGCCCUA [#2 Exclusion - FMN B Attempt #17 (HarryS)] | 99 nM
GGAUAGGAUAGAGGAUAUGGGCUAGGCAAGAAUAACUUGUCUAGCAAAUCCAUGAGGAGUGAUGUUCCAGAAGGCUGUCCUAUCG [FmnBX 1 U9] | 152 nM
UAGUCAUACAGAGGAUAUCGUAUGAGUGAUGUUCAUACGACAUAAUCGAGUUGUAUCGAUGUUCGACGAGAAGGCUGUAUGACUA [FMN B Ex t1b] | 118 nM
AAUAAGCGCCGAAGGAGCGGCCUCCGAGUGAUGUUCGGUGAGAUGCCAGUGAUGUUGGCCGGCCAGGUAGGUCGCGGCAAAGCUU [Same State Arginine B GF 29] | 161 nM
AGGCACGAGCAAGGAUAUCGAGUAGAGUGAUGUUCUGCCUGGGUUGGCGCGCAAGGGCCUUCCCAGCGAGAAGGUGCUCGUGCCU [#2 Same State - FMN A Attempt #11 (HarryS)] | 916 nM
AAGUCAUAGGCAGGAUAUGCAUUGUAAUAAGGCAAUAUAUACGUAUAGAGUGAUGUUUUGUACCAGGCAGAAGGGCUACAUCAGU [FMN B Excl V10 (+5A/U)] | 652 nM

Same assay, conditions: Eterna round: R107; input ligand: theophylline 20 uM

Sequence | apparent KD of K4 kissing-loop reporter
UUAGUCUAGAGAAGGAGCGAGUGAUGUUCGCAUGCUAUGAUGAAUUCAUCAUAGUUUAAUCCUCAGGUAGGUCGCUCUAGACAUU [AK7 Exc Arginine B] | 355 nM
CGGAUGUAGUGAUGUUAUAUUAGAUGUAGACGAGGACCGGUACGGCCGCCACUCGUGAUGGCUGCUAGCGCGUUGCGAGGUUUGC [ExTryptoA.Co] | 633 nM
UUUUGGUUCUGAGGAUAUUCGAAGAAAUAUAGUGAUGUUAUAUAAGGAGGAGGAUGUAGGGAGGAAGGAGAAGGCAGAAGAGGAG [ExFMNB.J] | 377 nM
CGAUCUGAUAGCAGUGAUGUUGCUACAGAUACCAGUCCAGAUCGAGACCCUUGGCAGCUGACCCGGCAUGUGCUAUGGUAGAUCG [Theo A Ex t1] | 154 nM
AAAUAGGUGUGCGAUACCAGCCGGAGUGAUGUUCCGUGUUGUACUGGCUGCACCUACGCCGGCCCUUGGCAGCGUGCUCCAUUUA [Enonin] | 263 nM
